Experimental data as given in PMC3659105, “Profiling Epidermal Growth Factor Receptor and Heregulin Receptor 3 Heteromerization Using Receptor Tyrosine Kinase Heteromer Investigation Technology” (PLoS ONE, 2013).
One block for each molecule: values may come before it.

Legend:
[1] = target: T1, HER3 (Homo sapiens, UniProt P21860); assay: Ligand-induced BRET between HER3/Rluc8 and Grb2/Venus (+ pcDNA3); type: cell-based
T1 construct: used to replace the C terminus of the full-length constructs (with or without Rluc8); host or cells: HEK293FT
T1 sequence (P21860 20-1342): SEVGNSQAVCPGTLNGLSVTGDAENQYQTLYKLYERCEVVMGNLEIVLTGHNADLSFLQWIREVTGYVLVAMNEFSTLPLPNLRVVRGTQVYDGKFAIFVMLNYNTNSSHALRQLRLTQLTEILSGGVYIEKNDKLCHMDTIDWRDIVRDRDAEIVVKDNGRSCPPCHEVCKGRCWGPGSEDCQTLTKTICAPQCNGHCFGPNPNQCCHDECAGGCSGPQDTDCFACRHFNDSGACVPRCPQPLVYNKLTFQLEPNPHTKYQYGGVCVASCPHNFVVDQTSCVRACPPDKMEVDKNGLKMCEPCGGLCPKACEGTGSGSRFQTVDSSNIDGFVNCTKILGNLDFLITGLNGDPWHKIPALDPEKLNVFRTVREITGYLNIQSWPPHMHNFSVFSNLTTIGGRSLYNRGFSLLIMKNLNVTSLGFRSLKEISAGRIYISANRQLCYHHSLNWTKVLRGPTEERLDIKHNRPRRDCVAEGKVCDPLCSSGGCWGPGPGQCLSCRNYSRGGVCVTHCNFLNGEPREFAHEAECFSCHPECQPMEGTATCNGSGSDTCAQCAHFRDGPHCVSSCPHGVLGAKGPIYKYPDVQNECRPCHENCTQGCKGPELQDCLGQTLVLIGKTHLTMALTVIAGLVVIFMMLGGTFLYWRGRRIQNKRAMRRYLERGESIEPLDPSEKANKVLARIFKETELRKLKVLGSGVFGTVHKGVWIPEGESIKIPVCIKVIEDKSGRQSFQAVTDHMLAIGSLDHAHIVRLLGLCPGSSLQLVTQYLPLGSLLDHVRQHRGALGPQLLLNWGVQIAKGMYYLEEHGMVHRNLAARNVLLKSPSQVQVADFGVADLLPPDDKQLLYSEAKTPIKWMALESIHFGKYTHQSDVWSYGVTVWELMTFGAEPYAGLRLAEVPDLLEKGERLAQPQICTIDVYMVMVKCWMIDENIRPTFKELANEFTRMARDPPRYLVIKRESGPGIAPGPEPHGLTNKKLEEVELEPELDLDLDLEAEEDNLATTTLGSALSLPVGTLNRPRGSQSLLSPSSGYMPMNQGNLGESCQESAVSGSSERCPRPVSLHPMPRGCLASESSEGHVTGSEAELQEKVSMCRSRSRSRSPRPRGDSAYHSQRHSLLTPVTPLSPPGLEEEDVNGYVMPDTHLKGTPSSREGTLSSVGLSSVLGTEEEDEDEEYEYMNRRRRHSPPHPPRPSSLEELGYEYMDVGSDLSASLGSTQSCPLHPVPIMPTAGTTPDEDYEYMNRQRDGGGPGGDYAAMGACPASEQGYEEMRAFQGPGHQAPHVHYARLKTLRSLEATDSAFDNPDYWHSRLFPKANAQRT
Method: (§1) HEK293FT cells (Life Technologies) were maintained at 37°C in 5% CO2 and complete media (Dulbecco's modified Eagle's medium (DMEM) containing 0.3 mg/ml glutamine, 100 IU/ml penicillin and 100 µg/ml streptomycin (GIBCO BRL, Carlsbad, CA, USA)) supplemented with 10% foetal calf serum (FCS) and 400 µg/ml Geneticin (Gibco). Transient transfections were carried out 24 h after seeding about 550,000 cells/well of a 6-well plate. Genejuice (Merck, Kilsyth, Australia) transfection reagent was used according to the manufacturer's instructions. Cells were harvested with 0.05% Trypsin-EDTA (Gibco).
HEK293FT cells were transiently transfected with cDNA encoding a RTK fused to Rluc8 (RTK/Rluc8) and Grb2 fused to Venus (Grb2/Venus), along with a second RTK that was untagged with respect to BRET signaling, or empty vector (pcDNA3). […] BRET measurements were taken at 37°C using the VICTOR Light plate reader with Wallac 1420 software (PerkinElmer, Glen Waverley, Victoria, Australia). Filtered light emissions were sequentially measured at 400–475 and 520–540 nm. The BRET signal was calculated by subtracting the ratio of 520–540 nm emission over 400–475 nm emission for a vehicle-treated cell sample from the same ratio for a second aliquot of the same cells treated with agonist, as described previously, [35]. […]
Data were analyzed using Prism 5 graphing software (GraphPad, La Jolla, CA, USA). […]

[2] = target: T2, EGFR-HER3 heteromer (Homo sapiens, UniProt P00533+P21860); assay: RTK-HIT BRET between HER3/Rluc8 and Grb2/Venus with untagged EGFR co-expressed; type: cell-based; conditions: HEK293FT cells, about 25 minutes of agonist stimulation
T2 construct: used to replace the C terminus of the full-length constructs (with or without Rluc8); host or cells: HEK293FT
Method: as §1
Following initial titration of cDNA amounts (data not shown), two ratios were selected for the heteromer combinations shown in Figure 2. […] BRET measurements were taken at 37°C using the VICTOR Light plate reader with Wallac 1420 software (PerkinElmer, Glen Waverley, Victoria, Australia). Filtered light emissions were sequentially measured at 400–475 and 520–540 nm. The BRET signal was calculated by subtracting the ratio of 520–540 nm emission over 400–475 nm emission for a vehicle-treated cell sample from the same ratio for a second aliquot of the same cells treated with agonist, as described previously, [35].

effect on BRET ([1]; increasing concentrations of AG-1478, pre-treated or not with 20 nM EGF or HRG): no effect
Molecule: COc1cc2ncnc(Nc3cccc(Cl)c3)c2cc1OC.Cl [AG-1478, AG-1478 hydrochloride, reference compound]

agonist-induced BRET signal ([1]; HER3/Rluc8 + Grb2/Venus without EGFR, 1 µM agonist, kinetic): no or little BRET signal
Molecule: EGF: epidermal growth factor, ligand selective for EGFR

pEC50 [2]: 7.46±0.14 (n = 5)
Molecule: HRG: Heregulin-β1, ligand of HER3
